In PMC8962522, “Direct interaction of TrkA/CD44v3 is essential for NGF-promoted aggressiveness of breast cancer cells” (Journal of Experimental & Clinical Cancer Research : CR, 2022):
Values belong to the binder of their own block, whether it stands above or below them.

Target: T1, TrkA-His tagged extracellular domain protein (Ala 34-Gly423) (UniProt P04629 34-423, RED-Tris-NTA dye on the His tag (Monolith His-Tag Labeling Kit))
T1 construct: TrkA (tropomyosin kinase A) extracellular domain, Ala34-Gly423; The TrkA used for nanoDSF is not described; source: bought: R&D Systems (9966-TK-050)
T1 sequence (P04629 34-423): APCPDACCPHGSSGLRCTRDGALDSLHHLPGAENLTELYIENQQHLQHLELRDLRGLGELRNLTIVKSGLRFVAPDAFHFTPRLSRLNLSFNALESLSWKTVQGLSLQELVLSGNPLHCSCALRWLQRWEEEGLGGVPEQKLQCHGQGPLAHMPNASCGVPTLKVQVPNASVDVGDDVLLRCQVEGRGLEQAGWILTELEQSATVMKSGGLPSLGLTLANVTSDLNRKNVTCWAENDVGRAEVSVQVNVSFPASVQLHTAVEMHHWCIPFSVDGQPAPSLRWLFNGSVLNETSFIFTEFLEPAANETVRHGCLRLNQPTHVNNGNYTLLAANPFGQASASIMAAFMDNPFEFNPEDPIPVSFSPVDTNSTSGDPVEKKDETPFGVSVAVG
Assay: MST; binding check: peptides and TrkA-His labelled with RED-Tris-NTA; PBS-T; high MST power, 100% LED
Settings: both partners purified

binding result: binds
B1: CD44v3 mimetic peptide 3 (peptide)
peptide: RDRHLSFSGSG
notes: zone 3 of CD44 variant exon v3; not glycosylated; numbers count on: exon v3; also called P3; source: synthetic peptide

binding result: binds
B2: CD44v3 mimetic peptide 4 (peptide)
peptide: IDDDEDFISST
notes: zone 4, the C-terminal region of CD44 variant exon v3; numbers count on: exon v3 (D34, F38 as printed); also called P4; CD44v3 C-terminal-mimicking peptide; source: synthetic peptide
